These results are taken from the nanobody polyreactivity screen of Harvey et al. (2022).

The series is described as follows: yeast display, Sf9 membrane polyspecificity reagent, FACS + sequencing; frameworks hold sequencing errors. In outline: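 Nanobodies from a synthetic yeast display library (Saccharomyces cerevisiae BJ5465), induced 36–48 hours with galactose, were stained 1 hour at 4 °C with 10% biotinylated, detergent-solubilized Sf9 membrane reagent, enriched on streptavidin microbeads, then FACS-sorted. Anti-HA (expression) and streptavidin (reagent binding) fluorescence set low and high (top ~1%) gates. Polyreactivity labels come from the gate of origin. Genes were colony-PCR amplified, MiSeq 2 × 250 sequenced and filtered by CDR length.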
“QVQLVESGGGLVQAGGSLRLSCAASGNTFCPYAMGWYRPAPGKERELVARISRSGSSTYYADSVKGRFTISRDNAKNTVYLQMNSLKPEDSAVYYCARGRTIRSSRTVGSWGQGTQVTVSS”: the “polyreactivity (PSR sort gate)” value was “high polyreactivity”. Regarding “QVQLVESGGGLVQAGCSLRLRCAASGFTFQYNGMGWYRQAPGKERELVAAINWSGGTTYYADSVKGRFTISRDNAKNTVYLLMNCLKPEDTAVYYCAKGYWRRYSPVGGLGYDYWGQGTQVSVSS”, the “polyreactivity (PSR sort gate)” value is reported as “high polyreactivity”. In the case of “QVQLVESGGGLVQAGGSLRLSCAASGSTLWWYDMGWYRQAPGKERELVAAINSGGSTNYADSVKGRFTISRDNAKNTVYLQMNSLKPEDTAVYYCNTDGEVTYDYWGQGTQVTVSS”, the “polyreactivity (PSR sort gate)” value is given as “low polyreactivity”. Next, “QVQLVESGGGLVQAGGSLRLSCAASGSNIFQYDMGWYRQAPGKERELVAAITISGGSTYYADSVKGRFTISRDNAKNTVYLQLNILKPEDTAVYYCNADYEWYLGGYDYWGQGTQVTVSS”: “high polyreactivity”. Next, “QVQLVESGGGLVQAGGSLRLSCAASGSIFLFNAMGWYRQAPGKERELVAAINRDDSTYYADSVKGRFTISRDNAKNTVYLLMISLKPEDTAVYYCAAPVLHAYYGYGYWGQGTQVTVSS”: “low polyreactivity”; “QVQLEESGGGLVQAGGSLRLSCAASGSTFSRYAMGWYRQAPGKERELVAAISSSGGGTYYADSVKGRFTISRDNAKNTVYLQMNSLKPEDTAVYYCAAKRVHGATGYWGQGTQVTVSS”: “high polyreactivity”. Next, “QDQLVESGGGLVQAGGSLRLRCAASGSIFGGYAMGWYRQAPGKERELVDAISSGGTTNYADSVMGRFTISRDNAKNTVYLQMNSLKQEDRAVYYCAREYGTTYQSVQVKFIQLDYWGQGTLVTVSS”: “low polyreactivity”; “QVQLVESGGGLVQAGGSLRLSCAASGRTFPYYTMGWYRQAPGKERELVAAISRSGGSTYYADSVKGRFTISRDNAKNTVYLQMNSLKPEDTAVYYCAAGIYRYNRYWGYNYWGQGTQVTVSS”: “high polyreactivity”. Consider “QVQLVESGGGLVQAGGSLRLSCAASGRIFVGYAMGWYRQAPGKETELVAAISRDGDNTFYADSVKGRFTISRDNAKNTVYLQMNSLKPEDTAVYYCAVDYWVWYGSAYAYDYYWGQGTQVTVSS”, for which the “polyreactivity (PSR sort gate)” value is “low polyreactivity”. Consider “QVQLVESGGGLVQAGGSLRLSCAASGNTFVYYAMGWYRQAPGKERELVAAISSSGGRTYYADSVKGRFTISRDNAKNTVYLQMNSLKPEDTAVYYCAARGPYTTKAYDYWGQGTQVTVSS”, for which the “polyreactivity (PSR sort gate)” value is listed as “high polyreactivity”. Next, “QVHLVESGGGLVQAGGSLRLSCPASGSTFYDNAMGCYRQPPGKERELVARIRWSGVRTYYADSVKGRFTISRDNAKNTVYLQMNSLKPEDTAVYYCAAGRPSRHWWSLDYYFWGQGTQVTVSS”: “low polyreactivity”.

Turning to “QVQLVESGGGLVQAGGSLRLSCAASGIIFRAYAMGWYRPAPGKERELVAAISWSGGSTYYADSVKGRFTISRDNAKNTVYLQMNSLKPEDTAVYYCAAESLVYDFDYWGQGTQVTVSS”, the “polyreactivity (PSR sort gate)” value is “high polyreactivity”. Turning to “QEQLQGSGGGLVQAGGSLRLTCAASGYIFQNVPMGWNRQAPGKERQLLAGIDNGTSTNYADSVNGRFTISRDNAKNTVYLQMNSLKPEDTAVYYCAAAGQADDTLGYWGQGTQVTVSS”, the “polyreactivity (PSR sort gate)” value is listed as “low polyreactivity”.

Consider “QVQLVESGGGLVQAGGSLRLSCAASGGTFSYYAMGWYRQAPGKERELVAAITYSGDRTYYADSVKGRFTISRDNAKNTVFLQMNSLKPEDTAVYYCNAVRGSWYGYYYWGQGTQVTVSS”, for which the “polyreactivity (PSR sort gate)” value is reported as “high polyreactivity”. Next, “QVQLVESGGGLVQAGGSLRLSCAASGSTFWTNAMGWYRQAPGKERELVAAISRSGGSTYYADSVKGRFTISRDNAKNTVYLQMNSLKPEDTAVYYCNAVLPYYRGSHYDYWGQGTQVTVSS”: “high polyreactivity”; “QVQLVESGGGLVQAGGSLRLSCAASGYTFYRYAMGWYRQAPGKERELVASITRSGGSTYYADSVKGRFTISRDNAKNTVYLQMNSLKPEDTAVYYCAAEYEFGHSSTPMDYWGQGTQVTVSS”: “high polyreactivity”.
